This is an account of results in patent US20020062500A1, “Hypersensitive response eliciting domains and use thereof” (priority 2000, published 2002).

Ends that are not written are not given here. Peptide text beside a SMILES is read from it.

Data set [1] deals with tobacco leaves (cv. Xanth). Particulars: in vivo.
Data set [2] is described as follows: Solubility of expressed or synthesized polypeptides. Type of data set: physicochemical. Here is the method:
For proteins expressed in E. coli that were difficult to dissolve in water, total cells were resuspended and sonicated in 8 M urea buffer (0. IM Na-phosphate, 10 mM Tris buffer, pH8.0). The total cell lysate was centrifuged, and supernatants were collected. Ni-agarose was added into the supernatants and mixed gently at room temperature for 30 min. The Ni-agarose resin was washed with buffer (8 M urea, 0.1 M Na-phosphate, 10 mM Tris buffer, pH6.3). The proteins were eluted with elution buffer (8 M urea, 0.1 M EDTA, 0.1 M Na-phosphate, 10 mM Tris buffer, pH 6.3) and dialyzed against buffer (pH 8.5, 10 mM Tris) with stepwise decreased urea. If the proteins still were insoluble in buffer, the solution pH was adjusted to 9 to 11 and sonicated at room temperature for 1 to 5 min.
Chemically synthesized polypeptides were dissolved in 10 mM Tris, pH 6.5 to 11 buffers depending on their solubility.

The conditions of data set [3]: cited from earlier work; for heat stable (description): description of known elicitors.
For data set [4] the following is noted: description of known elicitors; cited from earlier work.
The conditions of data set [5]: description of known elicitors; cited from earlier work. This is another data set of the same source.
The test system of a further data set is tobacco. Particulars: in vivo; cited from earlier work.
For a further data set, the system named is TMV. Nature of the data set: Percentage of TMV reduction on tobacco leaves. The format is in vivo.
In another data set the test system is tomato. The data set can be described thus: Plant growth enhancement with tomato. Type of data set: in vivo. Particulars: 10 μg/ml.

For the molecule “HrpNEa137180: E. coli expressed peptide, amino acids 137-180 of HrpNEa, His-tag fusion (STSQNDDSTSGTDSTSDSSDPMQQLLKMFSEIMQSLFGDGQDGT; also: His-tag fusion; UniProt Q01099 137-180, looked up, fragment)”, in data set [1], the “HR activity in tobacco” value is “elicit HR activity” and the “HR* (eliciting concentration)” value is under 5 µg/mL.

As to “(NC): Superharpin building block HrpNEa140-180 with his-tag leader (QNDDSTSGTDSTSDSSDPMQQLLKMFSEIMQSLFGDGQDGT; also: His-tag leader; UniProt Q01099 140-180, looked up, fragment)”, the Soluble result in data set [2] (Table 7, building blocks with his-tag leader) is listed as “Yes”.

On to `CSCC[C@H](NC(=O)[C@H](CCSC)NC(=O)[C@H](CO)NC(=O)[C@H](CCSC)NC(=O)[C@H](CCSC)NC(=O)[C@H](CCSC)NC(=O)[C@H](CCSC)NC(=O)[C@H](CCSC)NC(=O)CNC(=O)[C@@H](NC(=O)[C@H](CC(C)C)NC(=O)[C@H](CC(C)C)NC(=O)CNC(=O)[C@H](C)NC(=O)[C@H](CC(C)C)NC(=O)[C@H](CCC(N)=O)NC(=O)[C@H](CC(N)=O)NC(=O)[C@@H](NC(=O)[C@@H](NC(=O)[C@H](CC(=O)O)NC(=O)[C@H](CC(N)=O)NC(=O)[C@H](CCC(N)=O)NC(=O)[C@H](CC(N)=O)NC(=O)CNC(=O)CNC(=O)CNC(=O)[C@H](CC(C)C)NC(=O)CN)[C@@H](C)O)C(C)C)[C@@H](C)O)C(=O)O` [HrpNEa4370] (H-GLGGGNQNDTVNQLAGLLTGMMMMMSMM-OH; N-terminus and C-terminus assumed), for which the “Solubility (Source column: Partial soluble)” value in data set [2] (Table 4, synthesized peptide, cell wraps over two lines 'Partial' 'soluble') is recorded as “Partial”.

For the molecule “HrpNEa140176: Synthesized peptide, amino acids 140-176 of HrpNEa, acidic plus helix units (QNDDSTSGTDSTSDSSDPMQQLLKMFSEIMQSLFGDG; UniProt Q01099 140-176, looked up, fragment)”, in data set [1], the “HR activity (eliciting concentration)” value is given as “+ < 5 μg/ml”, the “HR activity in tobacco” value is “full activity of HR” and the “HR* (eliciting concentration)” value was under 5 µg/mL.

Regarding “hypersensitive response elicitor polypeptide or protein from Xanthomonas campestris pv. pelargonii: 20 kDa elicitor that includes the amino acid sequence of SEQ. ID. No. 18 (SSQQSPSAGSEQQLDQLLAM; Xanthomonas campestris pv. pelargonii)”, the “heat stable (description)” value in data set [3] is reported as “heat stable”. In addition, the protease sensitive result in data set [4] was “protease sensitive”.

For “SEQ. ID. No. 8: Protein encoded by the dspE gene of Erwinia amylovora, about 198 kDa”, the “pI (description)” value in data set [5] was 8.98.

B1: HrpWEa: Harpin protein from E. amylovora, subfamily W, 447 amino acids (protein, listed as Erwinia amylovora)
chain: MSILTLNNNTSSSPGLFQSGGDNGLGGHNANSALGQQPIDRQTIEQMAQLLAELLKSLLSPQSGNAATGAGGNDQTTGVGNAGGLNGRKGTAGTTPQSDSQNMLSEMGNNGLDQAITPDGQGGGQIGDNPLLKAMLKLIARMMDGQSDQFGQPGTGNNSASSGTSSSGGSPFNDLSGGKAPSGNSPSGNYSPVSTFSPPSTPTSPTSPLDFPSSPTKAAGGSTPVTDHPDPVGSAGIGAGNSVAFTSAGANQTVLHDTITVKAGQVFDGKGQTFTAGSELGDGGQSENQKPLFILEDGASLKNVTMGDDGADGIHLYGDAKIDNLHVTNVGEDAITVKPNSAGKKSHVEITNSSFEHASDKILQLNADTNLSVDNVKAKDFGTFVRTNGGQQGNWDLNLSHISAEDGKFSFVKSDSEGLNVNTSDISLGDVENHYKVPMSANLKVAE
Consider B1, for which the “heat stable (description)” value in data set [3] was “heat stable”. Also, in data set [4], the protease sensitive result is “protease sensitive”.

B2: amino acids 137 to 204 of HrpNEa: HR active fragment of HrpNEa isolated after digestion with protease (protein, UniProt Q01099 137-204, looked up, fragment)
chain: STSQNDDSTSGTDSTSDSSDPMQQLLKMFSEIMQSLFGDGQDGTQGSSSGGKQPTEGEQNAYKKGVTD
For the molecule B2, in the data set with tobacco, the “HR elicitation (literature)” value is reported as “hypersensitive response active”.

B3: HrpNEch: Harpin protein from E. chrysanthemi, subfamily N (protein, listed as Erwinia chrysanthemi)
chain: MQITIKAHIGGDLGVSGLGAQGLKGLNSAASSLGSSVDKLSSTIDKLTSALTSMMFGGALAQGLGASSKGLGMSNQLGQSFGNGAQGASNLLSVPKSGGDALSKMFDKALDDLLGHDTVTKLTNQSNQLANSMLNASQMTQGNMNAFGSGVNNALSSILGNGLGQSMSGFSQPSLGAGGLQGLSGAGAFNQLGNAIGMGVGQNAALSALSNVSTHVDGNNRHFVDKEDRGMAKEIGQFMDQYPEIFGKPEYQKDGWSSPKTDDKSWAKALSKPDDDGMTGASMDKFRQAMGMIKSAVAGDTGNTNLNLRGAGGASLGIDAAVVGDKIANMSLGKLANA
For B3, in data set [3], the “heat stable (description)” value was “heat stable”.

B4: SEQ. ID. No. 10: Protein encoded by the dspF gene, about 16 kDa (protein, listed as Erwinia amylovora)
chain: MTSSQQRVERFLQYFSAGCKTPIHLKDGVCALYNEQDEEAAVLEVPQHSDSLLLHCRIIEADPQTSITLYSMLLQLNFEMAAMRGCWLALDELHNVRLCFQQSLEHLDEASFSDIVSGFIEHAAEVREYIAQLDESSAA
Take B4: the “pI (description)” value in data set [5] is on record as 4.45.

B5: 98 residue of N-terminal HrpNEa fragment: Smallest bacterially produced HrpNEa peptide with HR-eliciting activity (Laby 1997) (protein, UniProt Q01099 1-98, looked up, fragment)
chain: MSLNTSGLGASTMQISIGGAGGNNGLLGTSRQNAGLGGNSALGLGGGNQNDTVNQLAGLLTGMMMMMSMMGGGGLMGGGLGGGLGNGLGGSGGLGEGL
As for B5, the “HR elicitation (literature)” value with tobacco is recorded as “displayed HR-eliciting activity”.

B6: HrpNEa: Harpin hypersensitive response elicitor protein from E. amylovora, 403 amino acids (protein, listed as Erwinia amylovora)
chain: MSLNTSGLGASTMQISIGGAGGNNGLLGTSRQNAGLGGNSALGLGGGNQNDTVNQLAGLLTGMMMMMSMMGGGGLMGGGLGGGLGNGLGGSGGLGEGLSNALNDMLGGSLNTLGSKGGNNTTSTTNSPLDQALGINSTSQNDDSTSGTDSTSDSSDPMQQLLKMFSEIMQSLFGDGQDGTQGSSSGGKQPTEGEQNAYKKGVTDALSGLMGNGLSQLLGNGGLGGGQGGNAGTGLDGSSLGGKGLQNLSGPVDYQQLGNAVGTGIGMKAGIQALNDIGTHRHSSTRSFVNKGDRAMAKEIGQFMDQYPEVFGKPQYQKGPGQEVKTDDKSWAKALSKPDDDGMTPASMEQFNKAKGMIKRPMAGDTGNGNLQARGAGGSSLGIDAMMAGDAINNMALGKLGAA
As to B6, the “Elicit HR” value in data set [1] is 1—3 μg/ml. The “% TMV reduction on tobacco” value worked out at 10% in the data set on TMV (1 μg/ml) and 55% in the data set on TMV (10 μg/ml). Also, the “% Plant Growth Enhancement” value in the data set with tomato is 11.68%. For the same molecule, the Soluble result in data set [2] (Table 8) was “Yes”. For the same molecule, in data set [3] (100° C.), the “heat stable at 100° C.” value was “at least 10 minutes”. In addition, the “pI (description)” value in data set [5] is reported as “approximately 4.3”.
